# Where two headings read alike, the source gives them in different places.
# What was measured:
# [1] = target: human CD40 on the cell surface (Raji cells, HEK-Blue CD40L cells, primary human B cells and DCs) (human) (UniProt P25942); assay: flow cytometry (FACS) binding to Raji cells
# [2] = target: human CD40 on the cell surface (Raji cells, HEK-Blue CD40L cells, primary human B cells and DCs) (human) (UniProt P25942); assay: cell-based or functional assay
# [3] = target: human CD40 on the cell surface (Raji cells, HEK-Blue CD40L cells, primary human B cells and DCs) (human) (UniProt P25942); assay: flow cytometry (FACS) binding to Raji cells; remark: listed apart in the source
# [4] = target: his-tagged human CD40 recombinant protein (h-CD40-his, Acrobiosystems Cat. #CD0-H5228) (human) (UniProt P25942); assay: SPR (Biacore), antibody captured on anti-human Fc chip, His-tagged CD40 as analyte, 1:1 model
# his-tagged human CD40 recombinant protein (h-CD40-his, Acrobiosystems Cat. #CD0-H5228) (human), sequence (P25942 21-193 limits assumed): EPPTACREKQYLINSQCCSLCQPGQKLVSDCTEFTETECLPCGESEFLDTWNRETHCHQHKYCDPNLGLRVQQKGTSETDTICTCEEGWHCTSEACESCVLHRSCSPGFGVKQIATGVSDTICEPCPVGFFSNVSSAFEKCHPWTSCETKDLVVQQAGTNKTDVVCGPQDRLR
# human CD40 on the cell surface (Raji cells, HEK-Blue CD40L cells, primary human B cells and DCs) (human), sequence (P25942 21-277): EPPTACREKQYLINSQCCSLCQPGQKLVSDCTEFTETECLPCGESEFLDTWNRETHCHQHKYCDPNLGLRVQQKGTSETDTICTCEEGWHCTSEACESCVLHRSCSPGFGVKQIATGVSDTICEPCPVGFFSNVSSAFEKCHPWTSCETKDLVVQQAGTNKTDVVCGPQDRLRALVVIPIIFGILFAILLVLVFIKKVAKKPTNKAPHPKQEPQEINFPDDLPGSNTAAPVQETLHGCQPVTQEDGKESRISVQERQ
substance,measurement,setting,value
"CFZ533 (iscalimab), anti-CD40 antagonistic antibody, positive control",EC50,[1],1.01 nM
same,"B cell activation assay, CD19+CD69+ %, IC50",[2],0.14 nM
same,"B cell activation assay, CD19+CD69+ %, maximum inhibition rate",[2],95%
same,"B cell activation assay, CD19+CD69+ MFI, IC50",[2],0.07 nM
same,"B cell activation assay, CD19+CD69+ MFI, maximum inhibition rate",[2],110%
same,IC50 for the inhibition of CD40 reporter gene cell activity (Experiment 1),[2],0.36 nM
same,IC50 for the inhibition of CD40 reporter gene cell activity (Experiment 2),[2],0.35 nM
same,"IC50 in DC cell activation assay system, CD80 MFI",[2],1.19 nM
same,"IC50 in DC cell activation assay system, CD86 MFI",[2],1.93 nM
same,"IC50 in DC cell activation assay system, IL-12/23 p40",[2],0.68 nM
same,"IC50 in DC cell activation assay system, TNFα",[2],0.35 nM
same,"Reporter gene cell activity IC50 (SEAP, HEK-Blue CD40L cells stimulated with CD40L)",[2],0.272 nM
same,EC50,[3],2.41 nM
same,Kd,[4],0.205 nM
same,koff,[4],0.000141 s⁻¹
same,kon,[4],688000 M⁻¹ s⁻¹

# Source: patent US20260207759A1, “COMPOSITION OF CD40-BINDING MOLECULE AND PHARMACEUTICAL USE THEREOF” (SUZHOU SUNCADIA BIOPHARMACEUTICALS CO., LTD., priority 2022, published 2026)
